Measured values taken from paper PMC6499326 (Genes & Development, 2019).

Experiments:
[1] = target: T1, His-NRDE2^111–1164 (human, UniProt Q9H7Z3 111-1164); test: pull-down
T1 sequence: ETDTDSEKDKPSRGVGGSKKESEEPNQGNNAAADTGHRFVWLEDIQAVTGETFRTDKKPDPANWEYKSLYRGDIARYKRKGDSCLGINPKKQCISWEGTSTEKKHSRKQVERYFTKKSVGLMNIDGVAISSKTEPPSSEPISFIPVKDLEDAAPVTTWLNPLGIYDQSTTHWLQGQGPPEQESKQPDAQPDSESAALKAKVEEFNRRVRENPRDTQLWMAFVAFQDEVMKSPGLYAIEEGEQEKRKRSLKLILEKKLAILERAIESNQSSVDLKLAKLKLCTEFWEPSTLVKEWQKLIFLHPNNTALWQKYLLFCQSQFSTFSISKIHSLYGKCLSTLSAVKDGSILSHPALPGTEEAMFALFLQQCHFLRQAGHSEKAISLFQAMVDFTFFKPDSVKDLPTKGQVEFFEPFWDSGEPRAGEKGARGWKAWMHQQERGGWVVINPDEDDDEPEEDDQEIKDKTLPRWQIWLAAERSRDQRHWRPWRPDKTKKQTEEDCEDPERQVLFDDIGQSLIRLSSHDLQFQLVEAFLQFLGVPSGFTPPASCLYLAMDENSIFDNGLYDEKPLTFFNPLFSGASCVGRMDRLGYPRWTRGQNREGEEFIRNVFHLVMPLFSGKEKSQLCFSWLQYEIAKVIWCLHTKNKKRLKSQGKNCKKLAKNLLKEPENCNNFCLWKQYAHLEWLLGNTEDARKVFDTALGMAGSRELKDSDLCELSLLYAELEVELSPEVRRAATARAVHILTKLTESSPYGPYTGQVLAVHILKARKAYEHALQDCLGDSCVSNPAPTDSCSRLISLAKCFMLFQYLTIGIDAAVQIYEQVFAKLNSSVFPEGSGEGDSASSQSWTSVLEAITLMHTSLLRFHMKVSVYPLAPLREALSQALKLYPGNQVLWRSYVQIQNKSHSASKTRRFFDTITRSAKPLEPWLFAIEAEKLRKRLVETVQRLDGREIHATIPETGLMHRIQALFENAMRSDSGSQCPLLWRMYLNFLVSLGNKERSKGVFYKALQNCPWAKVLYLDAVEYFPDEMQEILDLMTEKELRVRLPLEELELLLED

[2] = target: T2, His-MTR4^71–1042 (human, UniProt P42285 71-1042); test: SEC
T2 sequence: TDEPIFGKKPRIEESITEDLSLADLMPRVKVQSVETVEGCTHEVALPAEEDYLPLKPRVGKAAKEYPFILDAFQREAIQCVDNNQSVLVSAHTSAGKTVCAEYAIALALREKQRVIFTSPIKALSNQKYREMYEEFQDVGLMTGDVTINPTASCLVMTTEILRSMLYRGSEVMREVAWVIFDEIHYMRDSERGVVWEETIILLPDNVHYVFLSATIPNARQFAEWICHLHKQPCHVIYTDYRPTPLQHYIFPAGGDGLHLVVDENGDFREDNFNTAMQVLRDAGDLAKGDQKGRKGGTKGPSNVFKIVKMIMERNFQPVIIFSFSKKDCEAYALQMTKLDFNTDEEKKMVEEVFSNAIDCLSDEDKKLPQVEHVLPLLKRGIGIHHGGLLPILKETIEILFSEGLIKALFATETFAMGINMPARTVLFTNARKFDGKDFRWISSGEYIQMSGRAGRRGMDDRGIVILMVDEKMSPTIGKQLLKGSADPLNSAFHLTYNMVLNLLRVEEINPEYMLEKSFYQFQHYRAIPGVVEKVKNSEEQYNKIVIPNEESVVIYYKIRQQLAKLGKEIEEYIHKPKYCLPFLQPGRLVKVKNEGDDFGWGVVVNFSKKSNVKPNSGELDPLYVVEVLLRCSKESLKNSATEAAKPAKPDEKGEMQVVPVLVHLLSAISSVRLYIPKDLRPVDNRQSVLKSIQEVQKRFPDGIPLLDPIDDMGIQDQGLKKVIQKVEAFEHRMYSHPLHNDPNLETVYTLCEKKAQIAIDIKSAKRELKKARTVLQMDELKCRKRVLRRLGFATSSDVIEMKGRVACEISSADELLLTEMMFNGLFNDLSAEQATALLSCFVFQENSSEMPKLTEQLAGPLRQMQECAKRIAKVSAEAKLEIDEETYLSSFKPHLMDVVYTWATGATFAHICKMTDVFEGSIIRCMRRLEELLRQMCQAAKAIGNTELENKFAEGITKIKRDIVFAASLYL

[3] = target: T3, MTR4;NRDE2 MID (Homo sapiens;Homo sapiens, UniProt P42285;Q9H7Z3 71-1042;163-266, |); test: EMSA
T3 sequence 1: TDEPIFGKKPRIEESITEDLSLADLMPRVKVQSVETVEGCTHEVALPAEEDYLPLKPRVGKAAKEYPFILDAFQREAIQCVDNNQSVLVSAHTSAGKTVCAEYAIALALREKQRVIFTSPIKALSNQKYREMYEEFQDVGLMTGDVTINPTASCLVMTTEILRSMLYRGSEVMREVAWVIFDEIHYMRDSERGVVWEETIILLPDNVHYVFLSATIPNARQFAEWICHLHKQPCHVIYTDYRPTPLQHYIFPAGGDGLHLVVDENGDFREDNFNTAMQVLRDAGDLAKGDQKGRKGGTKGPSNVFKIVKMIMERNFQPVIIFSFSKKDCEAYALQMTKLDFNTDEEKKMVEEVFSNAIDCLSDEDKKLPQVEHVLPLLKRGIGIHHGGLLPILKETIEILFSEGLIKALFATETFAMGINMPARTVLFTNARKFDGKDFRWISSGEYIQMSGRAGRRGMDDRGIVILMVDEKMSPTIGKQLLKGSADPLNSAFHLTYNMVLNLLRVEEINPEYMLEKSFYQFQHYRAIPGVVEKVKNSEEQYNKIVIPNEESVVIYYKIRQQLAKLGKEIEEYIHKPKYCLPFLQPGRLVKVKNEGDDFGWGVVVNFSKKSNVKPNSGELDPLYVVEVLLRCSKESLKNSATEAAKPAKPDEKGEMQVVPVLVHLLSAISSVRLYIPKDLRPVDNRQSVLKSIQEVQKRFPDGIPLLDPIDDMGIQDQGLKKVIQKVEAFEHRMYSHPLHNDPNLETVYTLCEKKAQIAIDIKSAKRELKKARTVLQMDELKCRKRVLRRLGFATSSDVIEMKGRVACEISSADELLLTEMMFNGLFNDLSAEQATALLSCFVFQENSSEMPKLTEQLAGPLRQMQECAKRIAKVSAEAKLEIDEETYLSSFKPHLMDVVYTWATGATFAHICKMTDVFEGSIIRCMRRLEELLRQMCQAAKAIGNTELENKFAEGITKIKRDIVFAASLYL
T3 sequence 2: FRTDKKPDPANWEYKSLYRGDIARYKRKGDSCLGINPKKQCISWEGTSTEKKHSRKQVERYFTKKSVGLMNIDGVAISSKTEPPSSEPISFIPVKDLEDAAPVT

B1: MBP-MTR4^FL (natural protein)
chain: MADAFGDELFSVFEGDSTTAAGTKKDKEKDKGKWKGPPGSADKAGKRFDGKLQSESTNNGKNKRDVDFEGTDEPIFGKKPRIEESITEDLSLADLMPRVKVQSVETVEGCTHEVALPAEEDYLPLKPRVGKAAKEYPFILDAFQREAIQCVDNNQSVLVSAHTSAGKTVCAEYAIALALREKQRVIFTSPIKALSNQKYREMYEEFQDVGLMTGDVTINPTASCLVMTTEILRSMLYRGSEVMREVAWVIFDEIHYMRDSERGVVWEETIILLPDNVHYVFLSATIPNARQFAEWICHLHKQPCHVIYTDYRPTPLQHYIFPAGGDGLHLVVDENGDFREDNFNTAMQVLRDAGDLAKGDQKGRKGGTKGPSNVFKIVKMIMERNFQPVIIFSFSKKDCEAYALQMTKLDFNTDEEKKMVEEVFSNAIDCLSDEDKKLPQVEHVLPLLKRGIGIHHGGLLPILKETIEILFSEGLIKALFATETFAMGINMPARTVLFTNARKFDGKDFRWISSGEYIQMSGRAGRRGMDDRGIVILMVDEKMSPTIGKQLLKGSADPLNSAFHLTYNMVLNLLRVEEINPEYMLEKSFYQFQHYRAIPGVVEKVKNSEEQYNKIVIPNEESVVIYYKIRQQLAKLGKEIEEYIHKPKYCLPFLQPGRLVKVKNEGDDFGWGVVVNFSKKSNVKPNSGELDPLYVVEVLLRCSKESLKNSATEAAKPAKPDEKGEMQVVPVLVHLLSAISSVRLYIPKDLRPVDNRQSVLKSIQEVQKRFPDGIPLLDPIDDMGIQDQGLKKVIQKVEAFEHRMYSHPLHNDPNLETVYTLCEKKAQIAIDIKSAKRELKKARTVLQMDELKCRKRVLRRLGFATSSDVIEMKGRVACEISSADELLLTEMMFNGLFNDLSAEQATALLSCFVFQENSSEMPKLTEQLAGPLRQMQECAKRIAKVSAEAKLEIDEETYLSSFKPHLMDVVYTWATGATFAHICKMTDVFEGSIIRCMRRLEELLRQMCQAAKAIGNTELENKFAEGITKIKRDIVFAASLYL
- binding result [1]: binds

B2: untagged NRDE2^111–1164 (domain or fragment)
chain: ETDTDSEKDKPSRGVGGSKKESEEPNQGNNAAADTGHRFVWLEDIQAVTGETFRTDKKPDPANWEYKSLYRGDIARYKRKGDSCLGINPKKQCISWEGTSTEKKHSRKQVERYFTKKSVGLMNIDGVAISSKTEPPSSEPISFIPVKDLEDAAPVTTWLNPLGIYDQSTTHWLQGQGPPEQESKQPDAQPDSESAALKAKVEEFNRRVRENPRDTQLWMAFVAFQDEVMKSPGLYAIEEGEQEKRKRSLKLILEKKLAILERAIESNQSSVDLKLAKLKLCTEFWEPSTLVKEWQKLIFLHPNNTALWQKYLLFCQSQFSTFSISKIHSLYGKCLSTLSAVKDGSILSHPALPGTEEAMFALFLQQCHFLRQAGHSEKAISLFQAMVDFTFFKPDSVKDLPTKGQVEFFEPFWDSGEPRAGEKGARGWKAWMHQQERGGWVVINPDEDDDEPEEDDQEIKDKTLPRWQIWLAAERSRDQRHWRPWRPDKTKKQTEEDCEDPERQVLFDDIGQSLIRLSSHDLQFQLVEAFLQFLGVPSGFTPPASCLYLAMDENSIFDNGLYDEKPLTFFNPLFSGASCVGRMDRLGYPRWTRGQNREGEEFIRNVFHLVMPLFSGKEKSQLCFSWLQYEIAKVIWCLHTKNKKRLKSQGKNCKKLAKNLLKEPENCNNFCLWKQYAHLEWLLGNTEDARKVFDTALGMAGSRELKDSDLCELSLLYAELEVELSPEVRRAATARAVHILTKLTESSPYGPYTGQVLAVHILKARKAYEHALQDCLGDSCVSNPAPTDSCSRLISLAKCFMLFQYLTIGIDAAVQIYEQVFAKLNSSVFPEGSGEGDSASSQSWTSVLEAITLMHTSLLRFHMKVSVYPLAPLREALSQALKLYPGNQVLWRSYVQIQNKSHSASKTRRFFDTITRSAKPLEPWLFAIEAEKLRKRLVETVQRLDGREIHATIPETGLMHRIQALFENAMRSDSGSQCPLLWRMYLNFLVSLGNKERSKGVFYKALQNCPWAKVLYLDAVEYFPDEMQEILDLMTEKELRVRLPLEELELLLED
- stoichiometry N [2]: 1

Binder: UGUCUGACUGAAGGACCAGGUGCUGUCUGA (ssRNA) [5' FAM RNA (EMSA)]
- binding signal [3]: ~8 fold higher affinity than MTR4 alone
